In patent publication US20070087966A1:

Target: rat PRL receptor (PRL-R) on trigeminal ganglia neurons (rat) (UniProt P05710)
Test: cell-based or functional assay

rat PRL receptor (PRL-R) on trigeminal ganglia neurons (rat), sequence (P05710 20-610): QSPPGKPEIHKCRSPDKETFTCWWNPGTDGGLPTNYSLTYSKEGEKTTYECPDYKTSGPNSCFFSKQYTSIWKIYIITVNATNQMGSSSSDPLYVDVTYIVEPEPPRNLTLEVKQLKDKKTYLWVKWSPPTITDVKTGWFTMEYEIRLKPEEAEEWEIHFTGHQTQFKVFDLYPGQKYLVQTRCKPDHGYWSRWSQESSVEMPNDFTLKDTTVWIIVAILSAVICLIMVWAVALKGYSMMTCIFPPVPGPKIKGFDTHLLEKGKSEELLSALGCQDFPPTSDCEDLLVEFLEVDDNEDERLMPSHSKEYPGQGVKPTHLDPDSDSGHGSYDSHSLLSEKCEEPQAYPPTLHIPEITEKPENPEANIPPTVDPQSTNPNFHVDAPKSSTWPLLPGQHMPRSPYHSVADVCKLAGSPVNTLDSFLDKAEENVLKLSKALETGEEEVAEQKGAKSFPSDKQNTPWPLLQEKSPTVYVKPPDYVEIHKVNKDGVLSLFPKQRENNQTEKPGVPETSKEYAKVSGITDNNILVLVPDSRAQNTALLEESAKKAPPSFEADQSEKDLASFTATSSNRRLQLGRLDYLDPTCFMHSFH

Substance	reduction of the PRL effect on Icap (G129R-PRL 16 nM with rPRL 4 nM) [%]	EC50 of sensitization of capsaicin-induced currents (Icap) in TG neurons from naive female rats [nM]	TRPV1 phosphorylation (32P incorporation) in TG neurons from intact female rats, PRL 40 nM for 10 min [%]	capsaicin-evoked Ca2+ influx in TG neurons from intact female rats (PRL 40 nM, 10 min) [%]
G129R-hPRL (ligand)	40			
Ovine PRL [oPRL-21, BIO] (from UniProt P01240 31-229) (ligand)		0.27	150	71
